Assay results: patent US20200239579A1 (Genmab, published 2020)

T1: human PD-L2 (full length, on CHO cells) (human, UniProt Q9BQ51 20-273)
T1 construct: whole, on cells; also called CHO-PD-L2 cells
T1 sequence (looked up): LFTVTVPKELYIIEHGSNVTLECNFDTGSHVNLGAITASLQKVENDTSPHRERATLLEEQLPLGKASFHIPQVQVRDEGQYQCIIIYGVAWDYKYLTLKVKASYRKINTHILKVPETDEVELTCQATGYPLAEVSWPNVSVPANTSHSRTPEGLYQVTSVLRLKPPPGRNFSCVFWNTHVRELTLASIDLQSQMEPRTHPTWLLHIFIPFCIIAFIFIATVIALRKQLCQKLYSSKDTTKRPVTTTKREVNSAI


How the values were obtained:
[1] = target: T2, cynomolgus monkey PD-L1 (full length, on CHO cells) (cynomolgus monkey (Macaca fascicularis), UniProt G7PSE7 19-290); test: flow cytometry on CHO cells transfected with cynomolgus PD-L1, PE anti-human IgG secondary, MFI (PE)
T2 construct: whole, on cells; also called PDL1 Mf; cynomolgus PD-L1
Method: (§1) Cells (3-5×10⁴ cells/well) were incubated in polystyrene 96-well round-bottom plates (Greiner bio-one, cat. no. 650101) with serial dilutions of antibodies (range 0.0001 to 10 μg/mL in 5-fold dilution steps) in 50 μL PBS/0.1% BSA/0.02% azide (staining buffer) at 4° C. for 30 min.
(§2) After washing twice in staining buffer, cells were incubated in 50 μL secondary antibody at 4° C. for 30 min. As a secondary antibody, R-Phycoerythrin (PE)-conjugated goat-anti-human IgG F(ab′)₂ (Cat. no. 109-116-098, Jackson ImmunoResearch Laboratories, Inc., West Grove, Pa.) diluted 1:500 in staining buffer, was used for all experiments. Next, cells were washed twice in staining buffer, re-suspended in 20 μL staining buffer and analyzed on an iQue screener (Intellicyt Corporation, USA). Binding curves were analyzed using non-linear regression (sigmoidal dose-response with variable slope) using GraphPad Prism V75.04 software (GraphPad Software, San Diego, Calif., USA).
Binding to CHO cells expressing cynomolgus PD-L1 was determined by flow cytometry using a method as described above.

[2] = target: T3, PDLoneECDHisCtag (human, UniProt Q9NZQ7 19-238); test: BLI cross-block, second antibody on PDLoneECDHisCtag held by immobilised 338; bold = blocking
T3 construct: Expressed in HEK-293F cells; theoretical molecular weight 29 kDa; also called recombinant human PD-L1 ECD; human PD-L1 (BLI); not shown: C-terminal His-tag; C-tag
Method: (§3) Antibody cross-block testing was performed using biolayer interferometry (BLI) on an Octet HTX instrument (ForteBio). Antibodies (20 μg/ml in 10 mM sodium acetate buffer pH 6.0 (ForteBio)) were immobilized on Amine-Reactive 2nd Generation (AR2G) biosensors (ForteBio) according to the instructions of the manufacturer. After a baseline (50 s) in Sample Diluent (ForteBio), biosensors containing immobilized antibodies were loaded for 500 s with PDLoneECDHisCtag (100 nM or 2.7 μg/ml), after which the association response of a second antibody (10 μg/ml) was followed for 500 s. Biosensors were regenerated by using 3 times 5 s alternating exposures to 10 mM glycine pH 2.5 and Sample Diluent. The experiment was repeated with a new set of second antibodies starting from the baseline step. Each biosensor was used 6 times. The experiment was performed at 30° C. using a shaker speed of 1000 rpm. Data was analyzed using Data Analysis Software v9.0.0.12 (ForteBio). The Y-axis was aligned to the association step and Savitzky-Golay filtering was applied. The average buffer response was subtracted from the association response of the second antibody in order to correct for the dissociation of PDLoneECDHisCtag from the immobilized antibody. The corrected association responses were plotted in a matrix format.

[3] = target: T4, human PD-L1 (full length, on cells) (human, UniProt Q9NZQ7 19-290); test: flow cytometry on MDA-MB-231 cells, PE anti-human IgG secondary, MFI (PE)
T4 construct: The entry holds the signal peptide; also called CD274; B7H1
Method: as §1, §2

[4] = target: T3, PDLoneECDHisCtag; test: BLI cross-block, second antibody on PDLoneECDHisCtag held by immobilised MEDI; bold = blocking
Method: as §3

[5] = target: T3, PDLoneECDHisCtag; test: BLI cross-block, second antibody on PDLoneECDHisCtag held by immobilised MPDL; bold = blocking
Method: as §3

[6] = target: T3, PDLoneECDHisCtag; test: BLI cross-block, second antibody on PDLoneECDHisCtag held by immobilised 321; bold = blocking
Method: as §3

[7] = target: T1, human PD-L2 (full length, on CHO cells); test: flow cytometry on CHO cells expressing human PD-L2
Method: as §1, §2
A PE-conjugated PD-L2 specific antibody (Mylteni, clone MIH18; cat. no. 130-098-651) was used as positive control.

[8] = target: T3, PDLoneECDHisCtag; test: BLI cross-block, second antibody on PDLoneECDHisCtag held by immobilised 516; plain = non-blocking
Method: as §3

[9] = target: T5, cynomolgus PD-L1/137-H1 protein (Acro Biosystems, cat. No. PD1-052H4-100) (cynomolgus, UniProt G7PSE7 19-239); test: BLI (Octet HTX), average of 3 experiments; antibody on AHC sensor, cynomolgus PD-L1 protein (Acro Biosystems) as analyte
T5 construct: also called cynomolgus PD-L1 (BLI)

[10] = target: T3, PDLoneECDHisCtag; test: BLI (Octet HTX), average of 3 experiments; antibody on AHC sensor, PDLoneECD-HisCtag as analyte
Method: In a first set of experiments, affinities for recombinant-expressed human PD-L1 protein were determined using Bio-layer interferometry (BLI) on an Octet HTX instrument (ForteBio). Anti-Human IgG Fc Capture (AHC) biosensors (ForteBio) were loaded for 900 s with antibodies (1 μg/ml). […] The experiment was carried out while shaking at 1000 rpm at 30° C. Data was analyzed with Data Analysis Software v9.0.0.12 (ForteBio) using the 1:1 model and a global full fit with 1000 s association time and 200 or 1000 s dissociation time. Data traces were corrected by subtraction of a buffer reference, the Y-axis was aligned to the last 10 s of the baseline, and interstep correction as well as Savitzky-Golay filtering was applied. Data traces with a response <0.05 nm were excluded from analysis. As default, the fit using 1000 s dissociation time was used.

T3 sequence (Q9NZQ7 19-238, form in doubt): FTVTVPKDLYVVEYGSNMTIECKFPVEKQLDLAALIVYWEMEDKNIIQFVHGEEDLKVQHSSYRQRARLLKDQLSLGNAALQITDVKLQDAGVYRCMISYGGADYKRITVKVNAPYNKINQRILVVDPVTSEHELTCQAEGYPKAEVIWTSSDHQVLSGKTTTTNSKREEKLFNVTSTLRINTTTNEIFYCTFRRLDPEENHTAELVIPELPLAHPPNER
T4 sequence (Q9NZQ7 19-290 limits assumed): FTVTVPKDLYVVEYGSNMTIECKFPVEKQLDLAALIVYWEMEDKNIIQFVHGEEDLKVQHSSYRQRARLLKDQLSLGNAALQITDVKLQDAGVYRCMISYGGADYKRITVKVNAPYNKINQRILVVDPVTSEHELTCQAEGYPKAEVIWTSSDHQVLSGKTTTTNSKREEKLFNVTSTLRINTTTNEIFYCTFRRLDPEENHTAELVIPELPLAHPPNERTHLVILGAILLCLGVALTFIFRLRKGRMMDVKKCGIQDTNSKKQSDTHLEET
T2 sequence (G7PSE7 entry or part of it): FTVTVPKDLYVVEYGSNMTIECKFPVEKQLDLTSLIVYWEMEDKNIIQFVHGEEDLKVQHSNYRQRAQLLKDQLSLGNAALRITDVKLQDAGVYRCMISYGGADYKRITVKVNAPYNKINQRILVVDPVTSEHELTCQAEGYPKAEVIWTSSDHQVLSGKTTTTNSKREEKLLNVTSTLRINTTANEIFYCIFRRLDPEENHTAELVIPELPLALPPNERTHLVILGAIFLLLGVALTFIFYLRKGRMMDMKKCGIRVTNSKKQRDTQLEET
T5 sequence (G7PSE7 entry or part of it): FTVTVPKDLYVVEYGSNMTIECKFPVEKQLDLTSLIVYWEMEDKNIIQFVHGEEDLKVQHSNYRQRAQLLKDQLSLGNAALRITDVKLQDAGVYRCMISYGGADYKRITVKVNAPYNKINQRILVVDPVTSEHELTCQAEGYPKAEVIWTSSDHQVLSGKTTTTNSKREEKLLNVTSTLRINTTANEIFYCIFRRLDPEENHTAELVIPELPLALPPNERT

EC50 (read off the curve) [1] | association response of the second antibody [2] | EC50 (read off the curve) [3] | association response of the second antibody [4] | association response of the second antibody [5] | association response of the second antibody [6] | binding result [7] | association response of the second antibody [8] | Kd [9] | koff [9] | kon [9] | Kd [10] | koff [10] | kon [10] | Binder
~0.02 µg/mL | 0 nm | ~0.06 µg/mL | 0 nm | 0 nm | 0 nm | no binding | 0.8 nm | 0.27 nM | 0.00012 s⁻¹ | 440000 M⁻¹ s⁻¹ | 0.12 nM | 0.00011 s⁻¹ | 970000 M⁻¹ s⁻¹ | IgG1-547-FEAR (antibody, V domains shown) VH: EVQLLEPGGGLVQPGGSLRLSCEASGSTFSTYAMSWVRQAPGKGLEWVSGFSGSGGFTFYADSVRGRFTISRDSSKNTLFLQMSSLRAEDTAVYYCAIPARGYNYGSFQHWGQGTLVTVSS VL: SYVLTQPPSVSVAPGQTARITCGGNNIGSKSVHWYQQKPGQAPVLVVYDDNDRPSGLPERFSGSNSGNTATLTISRVEAGDEADYYCQVWDSSSDHVVFGGGTKLTVLG
~0.01 µg/mL | 0 nm | ~0.06 µg/mL | 0 nm | 0 nm | 0 nm | no binding | 1.1 nm | 0.73 nM | 0.00028 s⁻¹ | 390000 M⁻¹ s⁻¹ | 0.31 nM | 0.00025 s⁻¹ | 800000 M⁻¹ s⁻¹ | IgG1-338-FEAR (antibody, V domains shown) VH: EVQVVESGGGLVQPGGSLRLSCAASGFTFSRFWMSWVRQAPGKGLEWVANIKQDGGEKYYVDSVKGRFTISRDNAKNSLYLQMNSLRGEDTAVYYCARDDNWNGHFDYWGQGTLVTVSS VL: DIQMTQSPSTLSASVGDRVTITCRASQSISSWLAWYQQKPGKAPNLLIYKASSLESGVPSRFSGSGSGTEFTLTISSLQPDDFATYYCQQYYGSYITFGQGTRLEIKR
~0.02 µg/mL | 0 nm | ~0.04 µg/mL | 0 nm | 0 nm | 0 nm | no binding | 1.1 nm | 12 nM | 0.0052 s⁻¹ | 450000 M⁻¹ s⁻¹ | 5.1 nM | 0.0048 s⁻¹ | 960000 M⁻¹ s⁻¹ | IgG1-511-LC33S-FEAR (antibody, V domains shown) VH: QVQLVQSGSELKKPGASVMVSCKASGYTFTSYVMNWVRQAPGQGLEWMGWINSYTGNPTSAQGFTGRFVFSFDTSVNTAYLQISSLKAEDTAVYYCARGYCTSTSCYLDYWGQGTLVTVSS VL: SYELTQPPSVSVSPGHTARITCSGDALPKKYASWFQQKSGQAPVLVIYEDSKRPSGIPERFSGSTSGTMATLTISGAQVEDETDYYCYSADTSGTHRVFGGGTKLTVLG
